In PMC3588154:

Molecular target: human von Willebrand factor (VWF) (human) (UniProt P04275)
Test: SPR

Kd [nM] | koff [s⁻¹] | kon [M⁻¹ s⁻¹] | Substance
0.26 | 0.00087 | 3.4e+06 | recombinant B-domain-deleted FVIII (rBDD FVIII) (from UniProt P00451 1668-2351) (natural protein)
0.34 | 0.00089 | 2.6e+06 | recombinant factor VIII–Fc fusion protein (rFVIIIFc) (from UniProt P00451 1668-2351)
